Measurements as given in article PMC5320558, “The general PTS component HPr determines the preference for glucose over mannitol” (Scientific Reports, 2017).

Assays:
[1] = biological target: Untagged HPr (wild type) (E. coli) (UniProt P0AA04); assay: SPR; HPr immobilised on a CM5 sensor chip, various concentrations of MtlR applied; BIAcore 3000; BIAevaluation, assuming a 1:1 interaction
[2] = biological target: Untagged HPr (wild type) (E. coli) (UniProt P0AA04); assay: SEC; gel filtration on Superose 12 10/300 GL of MtlR alone, HPr alone and their mixture; fractions analysed by SDS-PAGE
[3] = biological target: the molecule itself; assay: as above

Row | Molecule | Kd [1] [nM] | stoichiometry N [2] | stoichiometry N [3]
1 | Untagged MtlR (mannitol operon repressor) (from UniProt P0AF10 1-195) (natural protein) | 62.2 | 1 HPr:MtlR | 
2 | Untagged MtlR (mannitol operon repressor) (natural protein, E. coli, UniProt P0AF10 1-195, looked up, MtlR, transcriptional repressor of the mtl operon, E. coli; monomer approximately 22.0 kDa; Eluted as a tetramer in gel filtration; source: overexpressed, purified (MonoQ, Superdex 75)) MVDQAQDTLRPNNRLSDMQATMEQTQAFENRVLERLNAGKTVRSFLITAVELLTEAVNLLVLQVFRKDDYAVKYAVEPLLDGDGPLGDLSVRLKLIYGLGVINRQEYEDAELLMALREELNHDGNEYAFTDDEILGPFGELHCVAALPPPPQFEPADSSLYAMQIQRYQQAVRSTMVLSLTELISKISLKKAFQK |  |  | 4
